# Source: patent US20210017532A1 (INSTITUTE OF GENETICS AND DEVELOPMENTAL BIOLOGY CHINESE …, published 2021)
# Where two headings read alike, the source gives them in different places.
# T1: Flag-OsSPL14, Q7EXZ2
# T1 chain: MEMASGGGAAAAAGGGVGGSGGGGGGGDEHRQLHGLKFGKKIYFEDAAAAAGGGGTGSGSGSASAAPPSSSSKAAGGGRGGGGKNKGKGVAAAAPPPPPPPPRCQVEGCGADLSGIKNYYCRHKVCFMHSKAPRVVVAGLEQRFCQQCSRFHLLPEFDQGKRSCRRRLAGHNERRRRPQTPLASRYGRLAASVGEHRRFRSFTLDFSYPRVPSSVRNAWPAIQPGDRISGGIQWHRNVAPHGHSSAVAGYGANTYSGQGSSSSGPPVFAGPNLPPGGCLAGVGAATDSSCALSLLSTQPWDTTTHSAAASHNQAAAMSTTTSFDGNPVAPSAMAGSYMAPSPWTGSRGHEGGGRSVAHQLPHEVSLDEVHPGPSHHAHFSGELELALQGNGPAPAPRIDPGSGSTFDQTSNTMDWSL
# T2: recombinant GST-OsSPL14 fusion protein, Q7EXZ2
# T2 chain: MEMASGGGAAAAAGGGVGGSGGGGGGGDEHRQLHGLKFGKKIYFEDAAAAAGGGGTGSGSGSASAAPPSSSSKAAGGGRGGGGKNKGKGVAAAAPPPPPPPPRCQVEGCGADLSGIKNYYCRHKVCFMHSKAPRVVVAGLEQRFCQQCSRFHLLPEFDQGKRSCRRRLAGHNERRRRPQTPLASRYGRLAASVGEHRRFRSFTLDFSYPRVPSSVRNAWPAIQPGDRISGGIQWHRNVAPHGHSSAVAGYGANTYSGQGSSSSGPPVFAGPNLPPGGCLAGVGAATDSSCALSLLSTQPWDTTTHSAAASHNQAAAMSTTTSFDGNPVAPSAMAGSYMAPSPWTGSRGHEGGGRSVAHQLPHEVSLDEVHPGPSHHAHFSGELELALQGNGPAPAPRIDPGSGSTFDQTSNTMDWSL
# T3: N-terminus of YFP-tagged deleted version of OsSPL14 (rice, UniProt Q7EXZ2 1-417)
# T3 construct: not shown: N-terminal fragment of YFP
# T3 sequence (looked up): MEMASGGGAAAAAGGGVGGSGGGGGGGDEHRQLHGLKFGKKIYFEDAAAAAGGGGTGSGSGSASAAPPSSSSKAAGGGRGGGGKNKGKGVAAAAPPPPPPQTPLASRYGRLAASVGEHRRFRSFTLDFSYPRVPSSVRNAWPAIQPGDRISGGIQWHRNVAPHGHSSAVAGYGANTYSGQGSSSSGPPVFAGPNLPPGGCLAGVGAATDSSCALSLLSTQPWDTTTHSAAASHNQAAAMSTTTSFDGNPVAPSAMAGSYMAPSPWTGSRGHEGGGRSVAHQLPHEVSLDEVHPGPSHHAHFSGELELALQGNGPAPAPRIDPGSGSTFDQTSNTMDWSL
# T4: YFP-fragment-tagged OsUBC13 (BiFC construct) (rice)
# T4 construct: BiFC in rice protoplasts; not shown: YFP fragment from pSY-735-35S-cYFP-HA or pSY-736-35S-nYFP-EE
# T4 chain: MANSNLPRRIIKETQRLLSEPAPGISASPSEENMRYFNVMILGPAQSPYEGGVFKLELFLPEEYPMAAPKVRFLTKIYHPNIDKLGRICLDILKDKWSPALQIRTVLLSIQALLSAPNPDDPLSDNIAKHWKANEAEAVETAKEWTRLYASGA
# T5: OsSPL14 (rice, UniProt Q7EXZ2 1-417)
# T5 construct: also called SBP-domain transcription factor OsSPL14
# T5 sequence (looked up): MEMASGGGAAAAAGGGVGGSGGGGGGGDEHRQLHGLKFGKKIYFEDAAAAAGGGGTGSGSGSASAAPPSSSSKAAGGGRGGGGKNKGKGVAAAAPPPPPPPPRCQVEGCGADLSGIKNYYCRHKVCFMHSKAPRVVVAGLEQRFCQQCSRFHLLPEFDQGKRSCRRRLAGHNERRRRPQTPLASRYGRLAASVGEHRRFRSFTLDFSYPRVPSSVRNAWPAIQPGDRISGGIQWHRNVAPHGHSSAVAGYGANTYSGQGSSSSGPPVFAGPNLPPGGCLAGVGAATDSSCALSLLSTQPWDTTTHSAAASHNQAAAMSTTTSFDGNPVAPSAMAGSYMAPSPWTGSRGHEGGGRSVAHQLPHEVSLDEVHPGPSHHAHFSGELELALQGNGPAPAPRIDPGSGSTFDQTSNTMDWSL
# T6: OsUBC13 (rice)
# T6 construct: Used for sentences that name OsUBC13 in general or cover several assay formats; also called E2 ubiquitin-conjugating protein
# T6 chain: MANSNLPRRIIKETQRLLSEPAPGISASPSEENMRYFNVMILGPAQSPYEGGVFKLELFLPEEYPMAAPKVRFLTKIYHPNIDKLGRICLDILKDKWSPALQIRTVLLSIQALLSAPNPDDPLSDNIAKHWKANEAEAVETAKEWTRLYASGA
# T7: full length OsUBC13 in pGADT7 (rice)
# T7 construct: Yeast two-hybrid prey; not shown: fusion partner encoded by vector pGADT7
# T7 chain: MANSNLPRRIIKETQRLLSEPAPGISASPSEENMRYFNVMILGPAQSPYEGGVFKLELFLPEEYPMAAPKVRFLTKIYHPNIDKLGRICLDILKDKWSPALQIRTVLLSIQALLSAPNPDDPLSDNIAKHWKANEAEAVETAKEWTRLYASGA
# Assays:
# [1] = tested on: His-UBQ10
# [2] = molecular target: T1, Flag-OsSPL14, Q7EXZ2
# [3] = molecular target: linear K63-linked tetra-ubiquitin (Boston Biochem)
# [4] = molecular target: linear K48-linked tetra-ubiquitin (Boston Biochem)
# [5] = molecular target: T2, recombinant GST-OsSPL14 fusion protein, …
# [6] = molecular target: His-UBQ10; remark: listed apart in the source
# [7] = molecular target: T3, N-terminus of YFP-tagged deleted …; assay: BiFC in rice protoplasts with deleted versions of OsSPL14
# Source text: (a) BiFC assays. The N-terminus of YFP-tagged OsSPL14, SBP-domain or a deleted version of OsSPL14 was co-transformed into rice protoplasts along with the C-terminus of YFP-tagged OsOTUB1.1. Panels (from left to right): DAPI staining, YFP signal, differential interference contrast, merged channel. Scale bar: 10 μm. (b) Co-immunoprecipitation of OsOTUB1.1-GFP and OsSPL14. IB, Immunoblot; IP, immunoprecipitation. (c) Plant morphology. Scale bar: 20 cm. (d) Panicle morphology. Scale bar: 5 cm. (e) OsSPL14 transcript abundance. Transcription relative to the level of the ZH11 plants set to be one. Data shown as mean±s.e.m. (n=3). (f) The number of tillers per plant. (g) The number of grains per panicle. (h) Culm diameter. All phenotypic data were measured from the field-grown plants under normal cultivation conditions. Data in f-h shown as mean±s.e.m. (n=120). The presence of the same lowercase letter denotes a non-significant difference between means (P<0.05).
# [8] = molecular target: T4, YFP-fragment-tagged OsUBC13 (BiFC …); assay: BiFC in rice protoplasts
# [9] = molecular target: T5, OsSPL14; assay: summary sentence of Example 1
# [10] = molecular target: T6, OsUBC13; assay: summary sentence of Example 1
# [11] = molecular target: T7, full length OsUBC13 in pGADT7; assay: yeast two-hybrid (pGBKT7 / pGADT7, strain AH109)
# Experimental: Yeast two-hybrid assays. Yeast two-hybrid assays were performed as described elsewhere^{14, 21}. The full length OsOTUB1.1 cDNA and an OsOTUB1 C-terminal fragment were amplified from ZH11 cDNA and inserted into pGBKT7 (Takara Bio Inc.), while the full length OsUBC13 cDNA and an OsSPL14 C-terminal fragment were inserted into pGADT7 (Takara Bio Inc.). Each of these plasmids was validated by sequencing before being transformed into yeast strain AH109. The required β-galactosidase assays were performed according to the manufacturer's (Takara Bio Inc.) protocol. Cells harboring either an empty pGBKT7 or an empty pGADT7 were used as the negative control. The entire OsOTUB1 sequence or a C-terminal fragment were used as the bait to screen a cDNA library prepared from poly(A)-containing RNA isolated from rice young panicles (<0.2 cm in length). The experimental procedures for screening and plasmid isolation followed the manufacturer's (Takara Bio Inc.) protocol.
molecule,measurement,setting,value
MBP-WTG1^D68E;C71S;H267R,"in vitro deubiquitination assay (cleavage of His-UBQ10, SDS-PAGE and anti-His blot)",[1],"MBP-WTG1^wtg1-1, MBP-WTG1^D68E;C71S;H267R and MBP did not cleave His-UBQ10"
Myc-OsOTUB1.1 (protein) MGGDYYHSCCGDPDPDLRAPEGPKLPYVGDKEPLSTLAAEFQSGSPILQEKIKLLGEQYDALRRTRGDGNCFYRSFMFSYLEHILETQDKAEVERILKKIEQCKKTLADLGYIEFTFEDFFSIFIDQLESVLQGHESSIGAEELLERTRDQMVSDYVVMFFRFVTSGEIQRRAEFFEPFISGLTNSTVVQFCKASVEPMGEESDHVHIIALSDALGVPIRVMYLDRSSCDAGNISVNHHDFSPEANSSDGAAAAEKPYITLLYRPGHYDILYPK,accumulation of Flag-OsSPL14 in rice protoplasts (immunoblot),[2],"Myc-OsOTUB1 promoted the degradation of Flag-OsSPL14 only in the presence of either WT-, K63O- or K48R-linked ubiquitins"
same,"ubiquitination of Flag-OsSPL14 in rice protoplasts (anti-Flag IP, anti-HA blot)",[2],"In the presence of Myc-OsOTUB1.1, the titer of ubiquitinated Flag-OsSPL14 was clearly decreased in the presence of either K48R or K63O mutations, but it remained unaffected by the presence of either K48O or K63R mutations"
recombinant OsOTUB1.1 of the tetra-ubiquitin cleavage assay (protein) MGGDYYHSCCGDPDPDLRAPEGPKLPYVGDKEPLSTLAAEFQSGSPILQEKIKLLGEQYDALRRTRGDGNCFYRSFMFSYLEHILETQDKAEVERILKKIEQCKKTLADLGYIEFTFEDFFSIFIDQLESVLQGHESSIGAEELLERTRDQMVSDYVVMFFRFVTSGEIQRRAEFFEPFISGLTNSTVVQFCKASVEPMGEESDHVHIIALSDALGVPIRVMYLDRSSCDAGNISVNHHDFSPEANSSDGAAAAEKPYITLLYRPGHYDILYPK,"cleavage of linear Lys63-linked tetra-ubiquitin (western blot, anti-ubiquitin)",[3],it also displayed a moderate level of activity when presented with the Lys63-linked forms
same,"cleavage of linear Lys48-linked tetra-ubiquitin (western blot, anti-ubiquitin)",[4],it showed a strong cleavage activity when presented with Lys48-linked tetra-ubiquitin
recombinant His-OsOTUB1 fusion protein (protein) MGGDYYHSCCGDPDPDLRAPEGPKLPYVGDKEPLSTLAAEFQSGSPILQEKIKLLGEQYDALRRTRGDGNCFYRSFMFSYLEHILETQDKAEVERILKKIEQCKKTLADLGYIEFTFEDFFSIFIDQLESVLQGHESSIGAEELLERTRDQMVSDYVVMFFRFVTSGEIQRRAEFFEPFISGLTNSTVVQFCKASVEPMGEESDHVHIIALSDALGVPIRVMYLDRSSCDAGNISVNHHDFSPEANSSDGAAAAEKPYITLLYRPGHYDILYPK,degradation of GST-OsSPL14 in young panicle lysates (anti-GST western blot over time),[5],the degradation of GST-OsSPL14 was accelerated in lysates made from ZH11-npt1 panicles in the presence of His-OsOTUB1
MBP-WTG1 (protein) MGGDYYHSCCGDPDPDLRAPEGPKLPYVGDKEPLSTLAAEFQSGSPILQEKIKLLGEQYDALRRTRGDGNCFYRSFMFSYLEHILETQDKAEVERILKKIEQCKKTLADLGYIEFTFEDFFSIFIDQLESVLQGHESSIGAEELLERTRDQMVSDYVVMFFRFVTSGEIQRRAEFFEPFISGLTNSTVVQFCKASVEPMGEESDHVHIIALSDALGVPIRVMYLDRSSCDAGNISVNHHDFSPEANSSDGAAAAEKPYITLLYRPGHYDILYPK,"in vitro deubiquitination assay (cleavage of His-UBQ10, SDS-PAGE and anti-His blot)",[6],MBP-WTG1 was capable of cleaving His-UBQ10
"C-terminus of YFP-tagged OsOTUB1.1 (enzyme, BiFC construct expressed in rice protoplasts; also called cYFP-OsOTUB1; cYFP-OsOTUB1.1; not shown: C-terminal fragment of YFP from vector pSY-735-35S-cYFP-HA) MGGDYYHSCCGDPDPDLRAPEGPKLPYVGDKEPLSTLAAEFQSGSPILQEKIKLLGEQYDALRRTRGDGNCFYRSFMFSYLEHILETQDKAEVERILKKIEQCKKTLADLGYIEFTFEDFFSIFIDQLESVLQGHESSIGAEELLERTRDQMVSDYVVMFFRFVTSGEIQRRAEFFEPFISGLTNSTVVQFCKASVEPMGEESDHVHIIALSDALGVPIRVMYLDRSSCDAGNISVNHHDFSPEANSSDGAAAAEKPYITLLYRPGHYDILYPK",binding result,[7],no binding
same,binding result,[8],binds
"OsOTUB1 (enzyme, Used for sentences that name OsOTUB1 in general or cover several assay formats; also called NPT1; DEP5) MGGDYYHSCCGDPDPDLRAPEGPKLPYVGDKEPLSTLAAEFQSGSPILQEKIKLLGEQYDALRRTRGDGNCFYRSFMFSYLEHILETQDKAEVERILKKIEQCKKTLADLGYIEFTFEDFFSIFIDQLESVLQGHESSIGAEELLERTRDQMVSDYVVMFFRFVTSGEIQRRAEFFEPFISGLTNSTVVQFCKASVEPMGEESDHVHIIALSDALGVPIRVMYLDRSSCDAGNISVNHHDFSPEANSSDGAAAAEKPYITLLYRPGHYDILYPK",binding result,[9],binds
same,binding result,[10],binds
"full length OsOTUB1.1 in pGBKT7 (enzyme, Yeast two-hybrid bait; not shown: fusion partner encoded by vector pGBKT7) MGGDYYHSCCGDPDPDLRAPEGPKLPYVGDKEPLSTLAAEFQSGSPILQEKIKLLGEQYDALRRTRGDGNCFYRSFMFSYLEHILETQDKAEVERILKKIEQCKKTLADLGYIEFTFEDFFSIFIDQLESVLQGHESSIGAEELLERTRDQMVSDYVVMFFRFVTSGEIQRRAEFFEPFISGLTNSTVVQFCKASVEPMGEESDHVHIIALSDALGVPIRVMYLDRSSCDAGNISVNHHDFSPEANSSDGAAAAEKPYITLLYRPGHYDILYPK",binding result,[11],binds
